The text below walks through data of US9388243B2, “Method of target membrane protein depletion” (Samsung Electronics Co., Ltd., priority 2013, dated 2016).

The assay deals with T1, EGFR in MKN45 stomach cancer cells (Homo sapiens, UniProt P00533).
T1 construct: endogenous in cells; host or cells: MKN45 (JCRB)
In words: Confocal microscopy of EGFR internalization and degradation in MKN45 cells. It is filed as cell-based. The following applies: MKN45, 5 μg/ml each, 4 hrs, confocal images (FIGS. 5-7). How it is done:
Each antibody was used at a density of 5 μg/ml/well, whether individually or in combination. For control, the cells were treated with PBS only. The cells were immobilized onto the plates by treatment with 4% (v/v) formaldehyde for 15 min, washed three times with PBS, and then blocked with a blocking buffer (0.5% triton x-100 and 5% donkey serum) at room temperature for 1 hr. […] The cells were washed again three times with PBS, and incubated at room temperature for 1 hr with 100 μl of a 1:2000 dilution of a secondary antibody (A21433, Invitrogen). After being washed three times with PBS, the cells were counterstained with a DAPI-containing mounting medium (H-1200, Vector Lab), and examined by Confocal microscopy (Zeiss, LSM710).
Comparison was made of degradation efficiency between the bispecific antibody and a combination of the monospecific antibodies.

B1: anti-EGFR ab: scFv-Fc antibody recognizing EGFR: SEQ ID NO: 109 and 111 variable domains fused to N-terminus of IgG2 Fc (antibody, V domains shown)
VH: QVQLVQSGAEVKKPGSSVKVSCKASGFTFTDYKIHWVRQAPGQGLEWMGYFNPNSGYSTYAQKFQGRVTITADKSTSTAYMELSSLRSEDTAVYYCARLSPGGYYVMDAWGQGTTVTVSS
VL: DIQMTQSPSSLSASVGDRVTITCRASQGINNYLNWYQQKPGKAPKRLIYNTNNLQTGVPSRFSGSGSGTEFTLTISSLQPEDFATYYCLQHNSFPTFGQGTKLEIKRT
modifications: IgG2 Fc without entry; linker; Synthetic (heavy-chain variable region of anti-EGFR antibody); Synthetic (light-chain variable region of anti-EGFR antibody)
Regarding B1, the “internalization into a cell and degradation of EGFR” value is listed as “induced by neither”. The “internalization into a cell and degradation of EGFR” value (listed as anti-EGFR antibody) is listed as “did not provoke the degradation of EGFR at all”.
